Laboratory results as given in patent US20200157212A1 (Pfizer, published 2020).

T1: Terbium (Tb) labeled-SNAP tagged ROBO2 expressed on HEK293 cells (Homo sapiens (Human), UniProt Q9HCK4 22-1378, terbium label on the SNAP tag)
T1 construct: also called Tb-labeled ROBO2 cells; ROBO2 expressing cells; not shown: SNAP tag
T1 sequence: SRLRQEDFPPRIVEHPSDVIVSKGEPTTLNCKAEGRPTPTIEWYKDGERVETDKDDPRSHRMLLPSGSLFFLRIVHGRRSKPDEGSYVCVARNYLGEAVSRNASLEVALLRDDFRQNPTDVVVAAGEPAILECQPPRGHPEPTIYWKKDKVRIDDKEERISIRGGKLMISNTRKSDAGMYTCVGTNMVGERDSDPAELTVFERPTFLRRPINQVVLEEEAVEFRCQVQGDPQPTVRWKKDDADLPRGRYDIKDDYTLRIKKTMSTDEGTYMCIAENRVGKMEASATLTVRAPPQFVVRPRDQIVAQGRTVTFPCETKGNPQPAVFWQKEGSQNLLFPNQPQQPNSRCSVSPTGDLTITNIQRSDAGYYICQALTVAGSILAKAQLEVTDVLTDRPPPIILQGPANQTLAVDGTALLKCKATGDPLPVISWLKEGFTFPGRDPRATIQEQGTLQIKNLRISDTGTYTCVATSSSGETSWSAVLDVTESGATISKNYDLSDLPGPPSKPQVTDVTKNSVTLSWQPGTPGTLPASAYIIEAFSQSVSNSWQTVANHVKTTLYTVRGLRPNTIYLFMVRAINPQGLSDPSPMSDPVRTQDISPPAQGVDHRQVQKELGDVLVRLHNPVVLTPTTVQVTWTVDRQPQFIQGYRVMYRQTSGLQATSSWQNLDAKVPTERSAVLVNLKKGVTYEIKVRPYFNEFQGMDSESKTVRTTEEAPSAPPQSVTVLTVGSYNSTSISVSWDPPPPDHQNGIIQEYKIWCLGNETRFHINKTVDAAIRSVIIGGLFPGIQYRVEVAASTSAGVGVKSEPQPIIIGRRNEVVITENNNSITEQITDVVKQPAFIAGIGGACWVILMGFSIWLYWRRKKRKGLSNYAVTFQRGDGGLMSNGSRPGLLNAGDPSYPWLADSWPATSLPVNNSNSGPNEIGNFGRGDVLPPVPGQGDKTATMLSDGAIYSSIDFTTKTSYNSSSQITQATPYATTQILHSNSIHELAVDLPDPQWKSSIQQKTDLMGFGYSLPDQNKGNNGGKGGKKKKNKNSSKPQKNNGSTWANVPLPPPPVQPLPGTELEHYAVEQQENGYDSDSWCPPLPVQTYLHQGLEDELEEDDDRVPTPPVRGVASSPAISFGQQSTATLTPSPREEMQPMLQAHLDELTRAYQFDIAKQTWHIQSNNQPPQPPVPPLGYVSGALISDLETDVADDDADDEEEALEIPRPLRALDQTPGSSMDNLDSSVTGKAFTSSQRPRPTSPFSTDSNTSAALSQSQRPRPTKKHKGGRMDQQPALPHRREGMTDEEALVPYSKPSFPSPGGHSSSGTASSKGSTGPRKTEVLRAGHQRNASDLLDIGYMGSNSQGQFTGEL

T2: Human ROBO2 overexpressed on HEK293 cells (human, UniProt Q9HCK4 22-1378)
T2 construct: also called ROBO2 cells; native ROBO2
T2 sequence: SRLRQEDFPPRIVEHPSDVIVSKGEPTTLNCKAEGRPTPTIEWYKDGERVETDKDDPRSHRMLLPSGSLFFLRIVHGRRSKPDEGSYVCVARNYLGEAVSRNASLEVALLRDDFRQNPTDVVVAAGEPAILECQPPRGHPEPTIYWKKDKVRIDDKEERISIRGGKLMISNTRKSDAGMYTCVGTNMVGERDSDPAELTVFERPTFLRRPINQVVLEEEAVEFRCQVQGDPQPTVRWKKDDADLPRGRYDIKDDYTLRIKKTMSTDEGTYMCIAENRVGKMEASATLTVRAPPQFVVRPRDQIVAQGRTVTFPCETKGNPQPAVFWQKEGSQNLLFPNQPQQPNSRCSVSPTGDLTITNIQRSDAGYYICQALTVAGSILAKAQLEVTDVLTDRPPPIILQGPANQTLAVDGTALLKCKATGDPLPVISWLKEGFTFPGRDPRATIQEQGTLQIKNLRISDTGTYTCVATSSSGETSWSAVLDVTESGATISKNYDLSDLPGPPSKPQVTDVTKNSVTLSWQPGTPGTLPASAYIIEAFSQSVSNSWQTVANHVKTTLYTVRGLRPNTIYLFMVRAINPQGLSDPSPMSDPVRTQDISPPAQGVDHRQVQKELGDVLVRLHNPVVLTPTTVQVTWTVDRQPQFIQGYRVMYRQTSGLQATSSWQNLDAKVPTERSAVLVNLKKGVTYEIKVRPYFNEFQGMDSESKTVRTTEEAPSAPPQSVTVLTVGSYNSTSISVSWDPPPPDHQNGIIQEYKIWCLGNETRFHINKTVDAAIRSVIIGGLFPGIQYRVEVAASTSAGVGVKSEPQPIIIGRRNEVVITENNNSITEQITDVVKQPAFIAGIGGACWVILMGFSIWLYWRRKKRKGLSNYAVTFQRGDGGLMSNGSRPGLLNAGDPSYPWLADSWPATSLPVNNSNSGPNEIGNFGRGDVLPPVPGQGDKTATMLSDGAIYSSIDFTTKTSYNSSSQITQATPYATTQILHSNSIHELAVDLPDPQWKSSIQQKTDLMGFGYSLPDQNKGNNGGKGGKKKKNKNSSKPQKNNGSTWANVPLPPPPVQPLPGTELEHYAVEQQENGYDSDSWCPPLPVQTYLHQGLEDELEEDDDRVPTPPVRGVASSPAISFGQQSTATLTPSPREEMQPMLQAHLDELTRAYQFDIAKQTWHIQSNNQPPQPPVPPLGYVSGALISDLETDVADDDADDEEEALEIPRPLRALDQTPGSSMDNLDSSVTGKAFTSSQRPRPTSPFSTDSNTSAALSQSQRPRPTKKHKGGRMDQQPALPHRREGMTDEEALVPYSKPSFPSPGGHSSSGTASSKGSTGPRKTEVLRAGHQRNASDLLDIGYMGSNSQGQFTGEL


What was measured:
[1] = target: T1, Terbium (Tb) labeled-SNAP tagged ROBO2 …; assay: HTRF competition, competitor d2-SLIT2-N, ROBO2 HEK293 cells
Method: (§1) Antibodies generated as a result of the affinity maturation campaign were screened by numerous assays for neutralization of SLIT2-N binding, selective binding to ROBO2 over ROBO1, and inhibition of SLIT2-N functional activity (see Table 2). A ROBO2-SLIT2-N homogenous time resolved fluorescence (HTRF) assay was used to identify antibodies that were capable of blocking SLIT2-N binding to ROBO2. In this assay, terbium (Tb) labeled-SNAP tagged ROBO2 expressing HEK293 cells were incubated with 5 nM d2-labeled SLIT-2N in the presence of 1 nM anti-ROBO2 antibodies for 1 hour. After incubation, fluorescence at 665 nm and 620 nm was measured on an Envision multilabel plate reader. […] Maximal signal was defined as the HTRF ratio of Tb-labeled ROBO2 cells with d2-labeled SLIT2-N in the absence of antibody, the minimum signal was defined as the HTRF ratio of Tb-labeled ROBO2 expressing HEK293 cells only. One nanomolar (nM) parental antibody, 93H2, was unable to block the HTRF assay, therefore this concentration was selected to identify clones with a higher affinity than 93H2 (Table 2, HTRF Ratio column). […] Antibodies derived from chain (Abcs series) or CDR shuffling (CTIR-2 series) were evaluated in 11-point, 5-fold dilution series with a top concentration of 1500 nM (Table 2 HTRF IC₅₀).

[2] = target: T2, Human ROBO2 overexpressed on HEK293 …; assay: flow cytometry, Geo MFI ROBO2/ROBO1 HEK293 cells, 0.1 µg/ml
Method: (§2) Binding of the antibodies was detected using a secondary fluorochrome conjugated anti-human IgG F(ab′)₂ antibody and samples were analyzed on a Fortessa cytometer (BD Biosciences). The fold ROBO2 selectivity was calculated as the geometric mean fluorescence intensity (Geo MFI) with ROBO2 cells/Geo MFI with ROBO1 cells. A fold change higher than 3 was considered to be ROBO2 specific (Table 2, Fold Selectivity). Some affinity matured clones had increased ROBO1 reactivity, for example Abcs 55, CTI-R2-10 and CTIR2-13.
(§3) HTRF assays were run with 5 nM d2-labeled SLIT2-N and antibodies were added at 1 nM. […] Antibodies derived from chain (Abcs series) or CDR shuffling (CTIR-2 series) were evaluated in 11-point, 5-fold dilution series with a top concentration of 1500 nM, N.T. = not tested; ^cFold selectivity was calculated as Geometric Mean Fluorescent Intensity (Geo MFI) of ROBO2/Geo MFI of ROBO1 binding. […] Outcomes: results are listed in order of assays listed in the table (left to right), I.A. = Improved Affinity

[3] = target: T1, Terbium (Tb) labeled-SNAP tagged ROBO2 …; assay: HTRF, 5 nM d2-SLIT2-N on Tb-SNAP-ROBO2 HEK293 cells, 1 nM antibody
Method: as §1, with “In” for “Antibodies generated as a result of the affinity maturation campaign were screened by numerous assays for neutralization of SLIT2-N binding, selective binding to ROBO2 over ROBO1, and inhibition of SLIT2-N functional activity (see Table 2). A ROBO2-SLIT2-N homogenous time resolved fluorescence (HTRF) assay was used to identify antibodies that were capable of blocking SLIT2-N binding to ROBO2. In”
HTRF assays were run with 5 nM d2-labeled SLIT2-N and antibodies were added at 1 nM. […] Antibodies derived from chain (Abcs series) or CDR shuffling (CTIR-2 series) were evaluated in 11-point, 5-fold dilution series with a top concentration of 1500 nM, N.T. = not tested; ^cFold selectivity was calculated as Geometric Mean Fluorescent Intensity (Geo MFI) of ROBO2/Geo MFI of ROBO1 binding.

[4] = target: T2, Human ROBO2 overexpressed on HEK293 …; assay: flow cytometry, Geo MFI ROBO2/ROBO1 HEK293 cells, 2.5 µg/ml
Method: as §2, §3

[5] = target: T3, Human ROBO1 RSK mutant overexpressed on HEK293 cells (human, UniProt Q9Y6N7 26-1651); assay: flow cytometry, Geo MFI ROBO1-RSK/ROBO2-KSR HEK293 cells, 2.5 µg/ml
T3 construct: K137R and R139K already in the entry; also called ROBO1-RSK cells
T3 sequence (Q9Y6N7 other isoform, or with tags, fused parts or gaps mutant limits assumed): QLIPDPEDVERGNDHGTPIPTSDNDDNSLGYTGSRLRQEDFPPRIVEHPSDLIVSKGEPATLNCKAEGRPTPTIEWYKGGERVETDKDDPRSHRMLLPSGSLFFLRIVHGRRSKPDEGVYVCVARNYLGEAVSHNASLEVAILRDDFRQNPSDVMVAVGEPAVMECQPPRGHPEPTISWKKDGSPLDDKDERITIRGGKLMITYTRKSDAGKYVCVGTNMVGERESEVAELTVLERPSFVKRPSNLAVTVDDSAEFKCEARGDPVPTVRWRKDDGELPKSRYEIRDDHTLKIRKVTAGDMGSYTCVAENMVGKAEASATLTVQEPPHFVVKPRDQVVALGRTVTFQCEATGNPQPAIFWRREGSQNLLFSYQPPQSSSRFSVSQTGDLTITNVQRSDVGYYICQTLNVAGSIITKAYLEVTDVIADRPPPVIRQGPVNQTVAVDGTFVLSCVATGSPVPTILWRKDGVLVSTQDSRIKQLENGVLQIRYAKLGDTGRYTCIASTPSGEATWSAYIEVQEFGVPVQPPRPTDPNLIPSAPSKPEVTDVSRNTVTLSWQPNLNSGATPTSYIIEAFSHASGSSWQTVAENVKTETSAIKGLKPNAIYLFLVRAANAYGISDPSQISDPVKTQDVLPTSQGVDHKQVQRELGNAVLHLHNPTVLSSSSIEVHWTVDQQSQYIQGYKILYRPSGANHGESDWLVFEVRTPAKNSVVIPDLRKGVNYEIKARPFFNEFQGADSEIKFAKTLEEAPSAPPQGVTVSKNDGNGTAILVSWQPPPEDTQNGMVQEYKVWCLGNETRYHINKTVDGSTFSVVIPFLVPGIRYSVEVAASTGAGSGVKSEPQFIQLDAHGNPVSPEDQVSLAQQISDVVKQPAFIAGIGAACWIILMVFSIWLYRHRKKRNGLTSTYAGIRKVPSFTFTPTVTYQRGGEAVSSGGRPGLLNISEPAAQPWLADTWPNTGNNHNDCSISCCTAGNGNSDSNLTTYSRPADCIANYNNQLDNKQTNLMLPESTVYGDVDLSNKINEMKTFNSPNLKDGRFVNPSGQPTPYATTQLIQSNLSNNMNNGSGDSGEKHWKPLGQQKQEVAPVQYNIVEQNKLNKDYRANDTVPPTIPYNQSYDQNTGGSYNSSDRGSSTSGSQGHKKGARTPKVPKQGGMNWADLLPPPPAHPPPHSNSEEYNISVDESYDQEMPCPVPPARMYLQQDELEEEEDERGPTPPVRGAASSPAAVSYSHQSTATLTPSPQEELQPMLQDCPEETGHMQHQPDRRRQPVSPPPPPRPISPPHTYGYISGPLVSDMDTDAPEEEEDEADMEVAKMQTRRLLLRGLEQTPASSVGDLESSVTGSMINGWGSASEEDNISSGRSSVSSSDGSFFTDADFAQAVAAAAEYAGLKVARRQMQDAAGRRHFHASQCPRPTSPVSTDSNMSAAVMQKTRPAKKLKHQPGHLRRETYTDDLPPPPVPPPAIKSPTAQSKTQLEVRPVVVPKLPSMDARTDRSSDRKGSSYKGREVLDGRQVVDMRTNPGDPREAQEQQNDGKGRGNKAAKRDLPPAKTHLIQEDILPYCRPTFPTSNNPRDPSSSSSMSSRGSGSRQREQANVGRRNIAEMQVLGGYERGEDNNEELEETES

Binder | IC50 [1] [pM] | Fold Selectivity for ROBO2/ROBO1 [2] [fold] | HTRF Ratio [3] | Fold Selectivity for ROBO2/ROBO1 [4] [fold] | Fold Selectivity for RSK/KSR [5] [fold]
Ab3 (antibody, human IgG1, kappa, V domains shown, full-length human IgG) VH: EVQLVQSGAEVKKPGASVKVSCKASGYTFTGYYMHWVRQAPGQGLEWMGWINPKSGATNFPQKFQGRVTMTRDTSITTAYMDLSRLRSDDTAVYYCARESGDDAFDIWGQGTMVTVSS VL: DIVMTQSPSSLSASVGDRVTITCRASQKISSYLNWYQQKPGKAPKLLIYAASSLQSGVPSRFSGSGSGTDFTLTISSLQPEDFATYYCQQSYSTSFGGGTKVEIKR | 133 | 92 | 6610 | – | –
Abcs5 (antibody, human IgG1, kappa, V domains shown, chain-shuffled IgG) VH: EVQLVQSGAEVKKPGASVKVSCKASGYTFTGYYMHWVRQAPGQGLEWMGWINPKNGDTEFPQKFQGRVTMTRDTSITTAYMDLSRLRSDDTAVYYCARESGDDAFDIWGQGTMVTVSS VL: DIVMTQSPSSLSASVGDRVTITCRASQSISSYLNWYQQKPGKAPKLLIYAASSLQSGVPSRFSGSGSGTDFTLTISSLQPEDFATYYCQQSLELGFGGGTKVEIKR | 36 | – | 3540 | 5.1 | 6.7
Abcs12 (antibody, human IgG1, kappa, V domains shown, chain-shuffled IgG; also called Abes12) VH: EVQLVQSGAEVKKPGASVKVSCKASGYTFTGYYMHWVRQAPGQGLEWMGWINPRNGITSFPQKFQGRVTMTRDTSITTAYMDLSRLRSDDTAVYYCARESGDDAFDIWGQGTMVTVSS VL: DIVMTQSPSSLSASVGDRVTITCRASQSISSYLNWYQQKPGKAPKLLIYAASSLQSGVPSRFSGSGSGTDFTLTISSLQPEDFATYYCQQSLELGFGGGTKVEIKR | 32 | – | 2910 | 15.7 | > 100

Further lines, results first:

IC50 [1] [pM] | Fold Selectivity for ROBO2/ROBO1 [2] [fold] | HTRF Ratio [3] | Fold Selectivity for ROBO2/ROBO1 [4] [fold] | Fold Selectivity for RSK/KSR [5] [fold] | Binder
55 | – | 3530 | 2.3 | 2.5 | CTIR2-13 (antibody, human IgG1, kappa, V domains shown, CDR-shuffled IgG) VH: EVQLVQSGAEVKKPGASVKVSCKASGYTFRGYAMHWVRQAPGQGLEWMGWIDPRTGLTKFPQKFQGRVTMTRDTSITTAYMDLSRLRSDDTAVYYCARESGDDAFDIWGQGTMVTVSS VL: DIVMTQSPSSLSASVGDRVTITCRASQKISSYLNWYQQKPGKAPKLLIYAASSLQYGVPSRFSGSGSGTDFTLTISSLQPEDFATYYCQQSYSTSFGGGTKVEIKR
51 | – | 2710 | 3.9 | 1.3 | Abcs50 (antibody, human IgG1, kappa, V domains shown, chain-shuffled IgG) VH: EVQLVQSGAEVKKPGASVKVSCKASGYTFTGYYMHWVRQAPGQGLEWMGWINPKNGDTEFPQKFQGRVTMTRDTSITTAYMDLSRLRSDDTAVYYCARESGDDAFDIWGQGTMVTVSS VL: DIVMTQSPSSLSASVGDRVTITCRASQSISSYLNWYQQKPGKAPKLLIYAASSLQYGVPSRFSGSGSGTDFTLTISSLQPEDFATYYCQQSYSTSFGGGTKVEIKR
64 | – | 3540 | 14.8 | > 100 | CTIR2-9 (antibody, human IgG1, kappa, V domains shown, CDR-shuffled IgG) VH: EVQLVQSGAEVKKPGASVKVSCKASGYTFTGYYMHWVRQAPGQGLEWMGWINPKSGATNFPQKFQGRVTMTRDTSITTAYMDLSRLRSDDTAVYYCARESGDDAFDIWGQGTMVTVSS VL: DIVMTQSPSSLSASVGDRVTITCRASQKISSYLNWYQQKPGKAPKLLIYAASSLQYGVPSRFSGSGSGTDFTLTISSLQPEDFATYYCQQSVGLFFGGGTKVEIKR
40 | – | 3920 | 2.3 | 1.4 | CTIR2-10 (antibody, human IgG1, kappa, V domains shown, CDR-shuffled IgG) VH: EVQLVQSGAEVKKPGASVKVSCKASGYTFRGYAMHWVRQAPGQGLEWMGWINPRSGVTEFPQKFQGRVTMTRDTSITTAYMDLSRLRSDDTAVYYCARESGDDAFDIWGQGTMVTVSS VL: not shown
67 | – | 4160 | 35 | > 100 | CTIR2-6 (antibody, human IgG1, kappa, V domains shown, CDR-shuffled IgG) VH: EVQLVQSGAEVKKPGASVKVSCKASGYTFTGYYMHWVRQAPGQGLEWMGWINPKSGATNFPQKFQGRVTMTRDTSITTAYMDLSRLRSDDTAVYYCARESGDDAFDIWGQGTMVTVSS VL: DIVMTQSPSSLSASVGDRVTITCRASQKISSYLNWYQQKPGKAPKLLIYAASSLQSGVPSRFSGSGSGTDFTLTISSLQPEDFATYYCQQSVGLFFGGGTKVEIKR
